B1: scFv; the commonest letter at each place (parent)
chain 1: EVKLDETGGGLVQPGRPMKLSCVASGFTFSDYWMNWVRQSPEKGLEWVAQIRNKPYNYETYYSDSVKGRFTISRDDSKSSVYLQMNNLRVEDMGIYYCTGSYYGMDYWGQGTSVTVS
chain 2: DVVMTQTPLSLPVSLGDQASISCRSSQSLVHSNGNTYLRWYLQKPGQSPKVLIYKVSNRFSGVPDRFSGSGSGTDFTLKISRVEAEDLGVYFCSQSTHVPWTFGGGTKLEIK

What was measured:
fluorescein = variants of: B1; experiment: Kd (Tite-Seq); conditions: with fluorescein; format: scFv 4-4-20, heavy + light
[1] = variants of: B1; experiment: yeast surface expression (ratio to wild type); higher = more expressed; conditions: format: scFv 4-4-20, heavy + light

Kd (fluorescein) [µM]	Variant	yeast surface expression [1]
0.61	chain 1 Y102L	0.974
≥ 10	chain 1 Y102P	0.77
4.6	chain 1 Y102M	0.944
≥ 10	chain 1 Y103L M105I	0.741
≥ 10	chain 1 Y102M Y103A Y107L	0.84
≥ 10	chain 1 W33C M34K	0.774
≥ 10	chain 1 Y107F G109E	0.259
0.0729	chain 1 Y102F Y103I	0.793
≥ 10	chain 1 Y102M G104M	0.472
0.000688	chain 1 Y107V W108Y	0.724
≥ 10	chain 1 Y102F G109H	0.186
≥ 10	chain 1 W36G V37N	0.597
≥ 10	chain 1 Y102P M105S	0.416
≥ 10	chain 1 Y102P M105K	0.473
≥ 10	chain 1 Y103P M105K	0.785
≥ 10	chain 1 Y32W W36Q	0.936
≥ 10	chain 1 W33I M34F	1
≥ 10	chain 1 W33V V37F	0.82
1.67	chain 1 Y32K	0.804
≥ 10	chain 1 Y32I	0.938
0.021	chain 1 Y102S Y103S	1.1
0.00293	chain 1 Y102S G109S	1.12
≥ 10	chain 1 W33F N35T	0.824
≥ 10	chain 1 W33F N35F	0.3
≥ 10	chain 1 Y32H N35T	0.813

Kd (fluorescein) [µM]	Variant	yeast surface expression [1]
≥ 10	chain 1 Y107Q W108Q	0.385
≥ 10	chain 1 Y32T V37H	0.624
≥ 10	chain 1 W33D W36M	0.165
≥ 10	chain 1 Y103E G109I	0.277
≥ 10	chain 1 Y102M Y103E	1.26
≥ 10	chain 1 Y102S D106R	0.499
≥ 10	chain 1 Y32C M34F	0.872
≥ 10	chain 1 Y32S N35G V37K	0.649
≥ 10	chain 1 Y102H G104N M105S	1.54
≥ 10	chain 1 Y32M W33D V37C	0.778
≥ 10	chain 1 Y103K G109W	0.123
≥ 10	chain 1 W33R N35Y	0.794
≥ 10	chain 1 Y103D Y107R	0.955
≥ 10	chain 1 Y102N D106E	1.27
≥ 10	chain 1 Y103L D106P	0.559
0.00561	chain 1 Y32F M34F	0.862
≥ 10	chain 1 W33H M34V V37L	0.434
≥ 10	chain 1 Y32Q W36V	0.479
≥ 10	chain 1 W33A W36H	0.549
≥ 10	chain 1 Y107R W108N	0.495
≥ 10	chain 1 W33V	0.944
≥ 10	chain 1 W33N N35T	0.979
≥ 10	chain 1 Y32G W33N	0.799
≥ 10	chain 1 Y32G W33A	0.708
≥ 10	chain 1 W36T	0.497

Kd (fluorescein) [µM]	Variant	yeast surface expression [1]
≥ 10	chain 1 W108E G109V	0.33
≥ 10	chain 1 Y102M M105F	0.995
≥ 10	chain 1 Y103T M105H	0.849
≥ 10	chain 1 Y102T G104W	0.638
0.0146	chain 1 Y102H W108A	0.528
9.02	chain 1 V37W	0.746
1.08	chain 1 V37R	0.716
≥ 10	chain 1 Y32E M34I	0.733
≤ 0.000316	chain 1 W108V	0.831
0.000846	chain 1 Y107W	1.11
≥ 10	chain 1 Y107G	0.544
≥ 10	chain 1 Y107C	0.592
0.000504	chain 1 Y102V W108Y	0.855
≥ 10	chain 1 Y102V Y107D	0.452
0.00226	chain 1 Y102V Y107F	0.877
0.00444	chain 1 Y103R	0.971
2.35	chain 1 Y103T	0.896
0.0132	chain 1 Y103H	1.1
≥ 10	chain 1 W33D V37C	0.802
≥ 10	chain 1 W33T M34W	0.967
≥ 10	chain 1 Y32R N35K	1.99
0.004	chain 1 Y103E W108I	1.12
≥ 10	chain 1 Y103D M105Y	1.03
≥ 10	chain 1 W33G V37L	0.49
≥ 10	chain 1 W33D N35G	0.941

Continued, variant first:

Variant	Kd (fluorescein) [µM]	yeast surface expression [1]
chain 1 S101V Y103F D106V	≥ 10	0.283
chain 1 S101F W108S G109S	≥ 10	0.242
chain 1 S101I W108E	≥ 10	0.21
chain 1 M34K V37W	≥ 10	0.494
chain 1 G100C S101W	≥ 10	0.507
chain 1 G100C S101C	≥ 10	0.624
chain 1 M105S G109H	≥ 10	0.261
chain 1 F29W D31G	5.37	0.567
chain 1 G100I Y102M	≥ 10	1.08
chain 1 T28W D31R	0.0171	0.51
chain 1 S30K Y32E	≥ 10	0.857
chain 1 M34I V37I	0.00827	0.831
chain 1 S30C W33Y	≥ 10	1.04
chain 1 G100Y G109L	≥ 10	0.306
chain 1 S30A V37R	0.00871	1.16
chain 1 T28P D31S	0.00115	1.07
chain 1 G104L Y107E	≥ 10	0.499
chain 1 G100R W108N	≥ 10	0.348
chain 1 D31H M34Q	≥ 10	0.268
chain 1 G104H	≥ 10	0.716
chain 1 G104Q	≥ 10	0.824
chain 1 T28H D31K	0.00606	0.589
chain 1 S30H N35E	≥ 10	0.504

Variant	Kd (fluorescein) [µM]	yeast surface expression [1]
chain 1 S30H N35D	≥ 10	0.828
chain 1 T28D F29T W36L	≥ 10	0.514
chain 1 F29D W36H	≥ 10	0.505
chain 1 S30G M34I	0.00239	0.889
chain 1 F29W W33S	≥ 10	0.431
chain 1 S30C Y32V	≥ 10	0.7
chain 1 T28H S30N Y32M	0.0692	1.01
chain 1 G100T G104V D106E	≥ 10	0.398
chain 1 N35E V37W	≥ 10	0.704
chain 1 S30Y D31T	0.00265	0.428
chain 1 G104S W108R	≥ 10	0.26
chain 1 S101H Y103L	≥ 10	0.78
chain 1 S101H Y103N	≥ 10	0.984
chain 1 D31G Y32D	≥ 10	0.803
chain 1 S101T D106Q	≥ 10	0.796
chain 1 S101F W108E	≥ 10	0.216
chain 1 D31C V37K	≥ 10	0.453
chain 1 S101Y G104H	≥ 10	0.343
chain 1 F29M Y32M	0.0171	1.21
chain 1 S101P G104W	≥ 10	0.299
chain 1 S30V	0.000743	0.901
chain 1 S30K	0.00122	1.12
chain 1 S30H	0.00317	0.839

Variant	Kd (fluorescein) [µM]	yeast surface expression [1]
chain 1 S30F	0.00205	0.828
chain 1 S30Y	0.00146	0.759
chain 1 S101C M105Y Y107T	≥ 10	0.488
chain 1 S101C M105Y Y107D	≥ 10	0.281
chain 1 M34A N35I	≥ 10	0.267
chain 1 S30W Y32C	5.66	0.838
chain 1 S30L D31L	≥ 10	0.0981
chain 1 M105N G109A	≥ 10	0.467
chain 1 G100C M105F	≥ 10	0.642
chain 1 G100K D106C	≥ 10	0.0988
chain 1 S30L W33I	≥ 10	0.639
chain 1 D31R Y32A	0.0944	0.863
chain 1 D31S M34G	≥ 10	0.543
chain 1 S30M D31S	0.00265	0.671
chain 1 G100E D106M	≥ 10	0.17
chain 1 M105T G109C	≥ 10	0.27
chain 1 F29T M34N	≥ 10	0.548
chain 1 G100Q D106H	≥ 10	0.182
chain 1 T28D W36Q	≥ 10	0.456
chain 1 T28D W36F	0.0154	0.895
chain 1 T28Y M34L N35C	≥ 10	0.495
chain 1 G104N Y107K	≥ 10	0.64
chain 1 S101L Y102A	≥ 10	0.514

Variant	Kd (fluorescein) [µM]	yeast surface expression [1]
chain 1 F29D M34I	≥ 10	0.946
chain 1 M105S D106S	6.96	0.843
chain 1 G100I Y103C M105Y	≥ 10	0.694
chain 1 D31W W36E	≥ 10	1.08
chain 1 G104Y Y107H	≥ 10	0.59
chain 1 N35F V37A	≥ 10	0.871
chain 1 G100L W108Q	≥ 10	0.477
chain 1 S101P Y107F W108F	≥ 10	0.239
chain 1 S30E D31N	0.000504	0.934
chain 1 D106H W108I	≥ 10	0.67
chain 1 M105H Y107G	≥ 10	0.412
chain 1 G100V S101N	≥ 10	0.787
chain 1 M105W Y107P	≥ 10	0.452
chain 1 G104V W108A	≥ 10	0.141
chain 1 G100L	≥ 10	0.747
chain 1 G100H	≥ 10	0.432
chain 1 G100R	≥ 10	0.624
chain 1 G100Y	≥ 10	0.606
chain 1 G100N Y102N	≥ 10	0.643
chain 1 G100I Y103F	≥ 10	0.932
chain 1 T28Q F29Q V37S	0.0624	0.421
chain 1 G100F M105D	≥ 10	0.573
chain 1 T28A Y32T	≥ 10	1.2

Variant	Kd (fluorescein) [µM]	yeast surface expression [1]
chain 1 M34K N35S	≥ 10	1.46
chain 1 D31Y	0.00334	0.729
chain 1 D31V	≥ 10	0.515
chain 1 T28L S30C	0.00158	0.839
chain 1 F29S D31Y	0.00343	0.752
chain 1 T28V F29W	0.0154	0.491
chain 1 S30R M34D	≥ 10	0.775
chain 1 S101I Y102T	≥ 10	0.614
chain 1 D31V W33K	≥ 10	0.795
chain 1 S101P	≥ 10	0.244
chain 1 D31G W33P	≥ 10	0.569
chain 1 F29I S30E	0.00343	0.929
chain 1 S101A Y103E	0.00966	1.23
chain 1 M105V G109I	≥ 10	0.203
chain 1 G100W Y103S	≥ 10	0.463
chain 1 T28N	0.00121	0.895
chain 1 S101I Y107Q	≥ 10	0.376
chain 1 T28W W33F W36P	≥ 10	0.554
chain 1 F29R Y32P N35E	≥ 10	0.819
chain 1 T28S V37Q	0.00184	0.71
chain 1 G104D M105W	≥ 10	0.703
chain 1 S30E M34W N35M	≥ 10	0.493
chain 1 T28H S30D	0.00184	0.948

Variant	Kd (fluorescein) [µM]	yeast surface expression [1]
chain 1 G104F D106G	≥ 10	0.169
chain 1 D106I W108S	≥ 10	0.397
chain 1 D31G M34C N35L	≥ 10	0.825
chain 1 G104V D106P	≥ 10	0.232
chain 1 G104A D106K	≥ 10	0.362
chain 1 G100W S101L	≥ 10	0.293
chain 1 S101Q G104R	≥ 10	0.384
chain 1 T28C M34L W36M	≥ 10	0.657
chain 1 S101C Y107S	≥ 10	0.457
chain 1 G104E G109Y	≥ 10	0.384
chain 1 D106W Y107N	≥ 10	0.222
chain 1 D31N Y32M	0.00672	0.945
chain 1 F29L N35T	≥ 10	0.76
chain 1 F29C N35K	≥ 10	1.18
chain 1 F29L S30L	≥ 10	0.651
chain 1 S30P W33E	≥ 10	1.01
chain 1 G109V	≥ 10	0.34
chain 1 G109T	≥ 10	0.551
chain 1 T28M S30A W36F	0.00158	0.845
chain 1 M105E G109W	≥ 10	0.278
chain 1 F29C V37E	6.96	0.973
chain 1 V37M	0.000333	0.958
chain 1 V37F	0.0259	0.9

Variant	Kd (fluorescein) [µM]	yeast surface expression [1]
chain 1 M105H W108Q	≥ 10	0.294
chain 1 S101F M105I	≥ 10	0.522
chain 1 G104N W108M G109E	≥ 10	0.217
chain 1 F29S W33H	≥ 10	0.724
chain 1 M34Q	9.5	0.801
chain 1 M34G	1.23	0.682
chain 1 D106P W108K	≥ 10	0.407
chain 1 M34N N35V	≥ 10	0.505
chain 1 M34C N35L V37F	0.0657	0.501
chain 1 F29W	0.0562	0.661
chain 1 F29A	0.0221	0.974
chain 1 M105V D106E	≥ 10	1.02
chain 1 D31S W36C	≥ 10	0.929
chain 1 T28M M34N	0.403	0.566
chain 1 F29N S30K	0.228	1.13
chain 1 D106L	≥ 10	0.466
chain 1 G104R Y107R	≥ 10	0.263
chain 1 F29P S30Y	0.0221	0.751
